Measured values taken from PMC3641832.

Key:
[1] = biological target: cce_0566 from Cyanothece sp. ATCC 51142 (DUF269 family protein) (Cyanothece sp. ATCC 51142); experiment: crystal structure
[2] = biological target: cce_0566 from Cyanothece sp. ATCC 51142 (DUF269 family protein) (Cyanothece sp. ATCC 51142); experiment: SEC
[3] = biological target: cce_0566 from Cyanothece sp. ATCC 51142 (DUF269 family protein) (Cyanothece sp. ATCC 51142); experiment: NMR 15N relaxation

Measured: stoichiometry N

cce_0566 from Cyanothece sp. ATCC 51142 (DUF269 family protein) (natural protein)
2: [1] | [2] | [3]
